In this series the test system is Escherichia coli TOP10. In words: shrunken log2 fold change of peptide-encoding DNA abundance (4.5 h post-induction vs induction); higher = less antimicrobial activity (less host growth inhibition). As to conditions: time post-induction: 4.5 h; library: site-saturation at positions 5, 18, 19, 20.
Regarding RRIRCRPPRLPRPRPRPYGAPRP, the “shrunken log2 fold change” value is -0.569.

For RRIRERPPRLPRPRPRPALMPRP, the “shrunken log2 fold change” value was 0.129.

With RRIRRRPPRLPRPRPRPLVTPRP, the “shrunken log2 fold change” value was -0.0631.

RRIRQRPPRLPRPRPRPQWDPRP: the “shrunken log2 fold change” value came to 0.0263.

For the sequence RRIRNRPPRLPRPRPRPKRNPRP, the “shrunken log2 fold change” value is -0.189.

As to RRIRARPPRLPRPRPRPFEAPRP, the “shrunken log2 fold change” value was 0.564.

In the case of RRIRVRPPRLPRPRPRPDRIPRP, the “shrunken log2 fold change” value was -0.135.

With RRIRLRPPRLPRPRPRPSTRPRP, the “shrunken log2 fold change” value was 0.174.

Consider RRIRSRPPRLPRPRPRPGLHPRP, for which the “shrunken log2 fold change” value is 0.186.

Take RRIRARPPRLPRPRPRPRICPRP: the “shrunken log2 fold change” value came out at 0.29.

Consider RRIRVRPPRLPRPRPRPGGVPRP, for which the “shrunken log2 fold change” value worked out at 0.224.

Turning to RRIRERPPRLPRPRPRPYPPPRP, the “shrunken log2 fold change” value is -0.942.

Consider RRIRRRPPRLPRPRPRPIRGPRP, for which the “shrunken log2 fold change” value is 0.1.

On to RRIRRRPPRLPRPRPRPYTKPRP, for which the “shrunken log2 fold change” value is -0.284.

For RRIRHRPPRLPRPRPRPKGMPRP, the “shrunken log2 fold change” value is -0.448.

Take RRIRQRPPRLPRPRPRPWHLPRP: the “shrunken log2 fold change” value was -0.0241.

Consider RRIRKRPPRLPRPRPRPWYYPRP, for which the “shrunken log2 fold change” value is -0.198.

Turning to RRIRVRPPRLPRPRPRPLEPPRP, the “shrunken log2 fold change” value turned out to be 0.236.

RRIRIRPPRLPRPRPRPHFMPRP: the “shrunken log2 fold change” value was -0.685.

Turning to RRIRDRPPRLPRPRPRPHDEPRP, the “shrunken log2 fold change” value turned out to be 0.167.

In the case of RRIRPRPPRLPRPRPRPLEYPRP, the “shrunken log2 fold change” value was -0.56.

With RRIRKRPPRLPRPRPRPQHKPRP, the “shrunken log2 fold change” value came out at 0.196.

Regarding RRIRHRPPRLPRPRPRPLQCPRP, the “shrunken log2 fold change” value was -0.0439.

As for RRIRHRPPRLPRPRPRPQFEPRP, the “shrunken log2 fold change” value is -0.0276.

RRIRGRPPRLPRPRPRPQPEPRP: the “shrunken log2 fold change” value was determined as 0.704.

On to RRIRWRPPRLPRPRPRPKWGPRP, for which the “shrunken log2 fold change” value is 0.463.

As to RRIRCRPPRLPRPRPRPVSSPRP, the “shrunken log2 fold change” value was -0.0119.

For the sequence RRIRPRPPRLPRPRPRPNQIPRP, the “shrunken log2 fold change” value came out at 0.0623.

On to RRIRMRPPRLPRPRPRPPKIPRP, for which the “shrunken log2 fold change” value turned out to be 0.45.

For RRIRWRPPRLPRPRPRPCPIPRP, the “shrunken log2 fold change” value was -0.204.

As to RRIRRRPPRLPRPRPRPYYFPRP, the “shrunken log2 fold change” value was -0.139.

For the sequence RRIRFRPPRLPRPRPRPAQAPRP, the “shrunken log2 fold change” value was 0.29.

As to RRIRPRPPRLPRPRPRPMWMPRP, the “shrunken log2 fold change” value is 0.000224.

As to RRIRARPPRLPRPRPRPIKKPRP, the “shrunken log2 fold change” value is -0.00732.

In the case of RRIRMRPPRLPRPRPRPKDGPRP, the “shrunken log2 fold change” value is -0.0156.

Take RRIRNRPPRLPRPRPRPPEKPRP: the “shrunken log2 fold change” value is 0.0323.

In the case of RRIRWRPPRLPRPRPRPMAIPRP, the “shrunken log2 fold change” value is -0.198.

For the sequence RRIRIRPPRLPRPRPRPFGDPRP, the “shrunken log2 fold change” value was -0.0112.

With RRIRLRPPRLPRPRPRPDYTPRP, the “shrunken log2 fold change” value is -0.295.

RRIRNRPPRLPRPRPRPDTVPRP: the “shrunken log2 fold change” value was -0.0521.

Regarding RRIRSRPPRLPRPRPRPEFSPRP, the “shrunken log2 fold change” value came out at 0.203.

With RRIRKRPPRLPRPRPRPVRVPRP, the “shrunken log2 fold change” value was 0.591.

As for RRIRRRPPRLPRPRPRPLTSPRP, the “shrunken log2 fold change” value was 0.233.

For RRIRRRPPRLPRPRPRPSTNPRP, the “shrunken log2 fold change” value is -0.0966.

Consider RRIRQRPPRLPRPRPRPRTQPRP, for which the “shrunken log2 fold change” value stood at 0.0198.

For the sequence RRIRARPPRLPRPRPRPLRRPRP, the “shrunken log2 fold change” value stood at 1.15.

Regarding RRIRARPPRLPRPRPRPIECPRP, the “shrunken log2 fold change” value was 0.157.

As to RRIRNRPPRLPRPRPRPSIHPRP, the “shrunken log2 fold change” value is -0.185.

Regarding RRIRLRPPRLPRPRPRPEIIPRP, the “shrunken log2 fold change” value was found to be 0.179.

For the sequence RRIRSRPPRLPRPRPRPMWIPRP, the “shrunken log2 fold change” value is -0.0694.
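Further: peptides expressed intracellularly from a pBAD plasmid library in pooled LB shake-flask culture, induced with 0.3% L-arabinose, DNA abundance read by NGS, three biological replicates, DESeq2 with apeglm shrinkage.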
